Consider three substances from patent US20180086826A1.

Test [1] addresses I83E trastuzumab memAb Fab. The test is described as follows: SPR, 37 °C.
The target of test [2] is meditope-enabled Trastuzumab Fab (original, Ile83). The test is described as follows: SPR, 37 °C, immobilized memAb. On the technique in general: SPR reads the build-up and loss of mass on a sensor chip optically.
Test [3] has as its target I83E trastuzumab memAb Fab. The test is described as follows: SPR, 37 °C; against the original meditope on the original trastuzumab memAb Fab.
Test [4] addresses meditope-enabled Trastuzumab Fab (original, Ile83). Described as above.
In test [5] the target is HER2 (UniProt P04626). As to the kind of experiment: SPR, immobilized HER2, 25 °C.
Test [6] addresses meditope-enabled Trastuzumab Fab (original, Ile83). The test is described as follows: SPR, 37 °C.

On to 5-diphenyl meditope (peptide), for which the figures for the Kd in test [1] and in test [2] were 0.86 nM and 41 nM, respectively. Also, the τ1/2 in test [1] was 2400 s; in test [2], 60 s. Besides, the fold increase in affinity amounted to 1160 fold in test [3] and 25 fold in test [4].

For I83E trastuzumab memAb Fab, in test [5], the Kd stood at 0.044 nM.

As for original meditope (peptide), the Kd in test [1] turned out to be 38 nM; in test [2] it was 1000 nM. The substance further registered a koff in test [1] of 0.0025 s⁻¹. The τ1/2 in test [1] is 280 s; in test [6], 16 s. Moreover, the fold increase in affinity in test [3] was 25 fold.

Broadly, the Kd is the concentration at which binding is half-saturated. Low readings indicate tighter binding, high ones weaker binding. Broadly, the koff is the first-order rate constant of dissociation. Lower therefore signals a long-lived complex.
